One data set deals with H2K-2B4 cells. Kind of data set: CCK-8 cell viability, WT H2K-2B4 cells. In kind it is cell-based, murine. The following applies: at 1 mM, proliferation and differentiation conditions, CCK-8, triplicate. As for the experimental part:
(§1) Wild-type (WT) H2K-2B4 and dystrophic H2K-SF1 cell lines were cultured and used for all the experiments ([48]). Cells were seeded in 96-well cultures (approximately 4–4.5 × 10^3 cells per well) and sixteen hours after seeding were treated with EP80317, JMV2894 (both in the concentration range 100μM to 1mM) or ghrelin (as control in the concentration range 10nM to 100 μM). Cell viability was then evaluated at different time points following the exposure (16-96 h) by using the Cell Counting Kit-8 (CCK-8,96992 Sigma-Aldrich), according to the instruction. The optical density of each well was determined using a microplate reader set to 450 nm (Victor 3V, Perkin Elmer, Waltham, MA, USA). Cell viability was expressed in percentage vs. control properly corrected for blank values.

The next data set concerns H2K-SF1 cells. The experiment in a line: CCK-8 cell viability, dystrophic H2K-SF1 cells. In kind it is cell-based, murine. The following applies: at 1 mM, proliferation and differentiation conditions, CCK-8, triplicate. The method, then: as §1

This is an account of results in PMC10130389, “Growth hormone secretagogues modulate inflammation and fibrosis in mdx mouse model of Duchenne muscular dystrophy” (Frontiers in Immunology, 2023).

No end group written: not given here.

Take “ghrelin: 28 amino acid hormone, used as control in the cell viability assay (GSSFLSPEHQRVQQRKESKKPPAKLQPR; ends and bridges not checked; UniProt Q9UBU3 24-51, looked up)”: the “toxic effect on 2B4 cells” value in the data set with H2K-2B4 cells was “no toxic effect”. In the data set on H2K-SF1 cells, the “toxic effect on SF1 cells” value is listed as “no toxic effect”.
